Results on one protein are retold here after paper PMC2080633, “Dimerization of inositol monophosphatase Mycobacterium tuberculosis SuhB is not constitutive, but induced by binding of the activator Mg^2+” (BMC Structural Biology, 2007).

The data set concerns the molecule itself. As to the kind of experiment: AUC; sedimentation velocity, 1.0 mg.ml^-1 SuhB, no Mg^2+; 20 mM Tris-HCl pH 7.9, 50 mM NaCl, 40,000 rpm, 4°C; monomer to dimer.

B1: Mycobacterium tuberculosis SuhB (Rv2701c), inositol monophosphatase (enzyme)
chain: MTRPDNEPARLRSVAENLAAEAAAFVRGRRAEVFGISRAGDGDGAVRAKSSPTDPVTVVDTDTERLLRDRLAQLRPGDPILGEEGGGPADVTATPSDRVTWVLDPIDGTVNFVYGIPAYAVSIGAQVGGITVAGAVADVAARTVYSAATGLGAHLTDERGRHVLRCTGVDELSMALLGTGFGYSVRCREKQAELLAHVVPLVRDVRRIGSAALDLCMVAAGRLDAYYEHGVQVWDCAAGALIAAEAGARVLLSTPRAGGAGLVVVAAAPGIADELLAALQRFNGLEPIPD
notes: Inositol monophosphatase SuhB (Rv2701c) of Mycobacterium tuberculosis; the crystal model covers residues 5-34, 54-85, 98-253, 260-286; also called IMPase
For orientation: stoichiometry N means the number of molecules, sites or subunits per partner or assembly. As for B1, the “stoichiometry N” value amounted to 2.
